T1: human amylin receptor (human, UniProt P30988 25-474; O60896 24-148, limits assumed)
T1 construct: whole, on cells; Calcitonin receptor plus RAMP-3 gives the amylin 3(a) receptor; membranes of Amylin 3(a)/CRE-luc cells were used; also called hAmylin-R; hAmylinR
T1 sequence (looked up) 1: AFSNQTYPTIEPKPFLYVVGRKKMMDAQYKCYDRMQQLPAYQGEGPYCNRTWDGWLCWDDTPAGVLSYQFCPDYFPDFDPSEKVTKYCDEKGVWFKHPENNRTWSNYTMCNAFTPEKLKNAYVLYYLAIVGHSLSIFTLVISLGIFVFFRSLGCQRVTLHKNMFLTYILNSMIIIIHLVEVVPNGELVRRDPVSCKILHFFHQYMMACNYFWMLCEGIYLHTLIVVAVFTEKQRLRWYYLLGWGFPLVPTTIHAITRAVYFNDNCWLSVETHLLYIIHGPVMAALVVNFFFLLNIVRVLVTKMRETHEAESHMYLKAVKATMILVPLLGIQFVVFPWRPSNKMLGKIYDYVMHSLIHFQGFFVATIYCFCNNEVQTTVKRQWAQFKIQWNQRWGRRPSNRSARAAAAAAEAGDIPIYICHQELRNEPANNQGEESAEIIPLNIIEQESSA
T1 sequence (looked up) 2: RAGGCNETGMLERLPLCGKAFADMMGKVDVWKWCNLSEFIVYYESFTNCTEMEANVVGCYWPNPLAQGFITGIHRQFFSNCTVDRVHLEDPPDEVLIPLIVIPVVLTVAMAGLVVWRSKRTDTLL

B1: N^ε1-[2-[2-[2-[[(4S)-4-carboxy-4-(19-carboxynonadecanoylamino)butanoyl]amino]ethoxy]ethoxy]acetyl]-[Arg17,Pro21,Pro27,Glu35]-h-amylin (peptide)
peptide: K([AEEA-γGlu-C20 diacid])CNTATCATQRLANFLRHSSPNFGAIPSSTNVGSETY-NH2
modifications: disulfide 2-7; N-terminus assumed
SMILES: CC[C@H](C)[C@H](NC(=O)[C@H](C)NC(=O)CNC(=O)[C@H](Cc1ccccc1)NC(=O)[C@H](CC(N)=O)NC(=O)[C@@H]1CCCN1C(=O)[C@H](CO)NC(=O)[C@H](CO)NC(=O)[C@H](Cc1c[nH]cn1)NC(=O)[C@H](CCCNC(=N)N)NC(=O)[C@H](CC(C)C)NC(=O)[C@H](Cc1ccccc1)NC(=O)[C@H](CC(N)=O)NC(=O)[C@H](C)NC(=O)[C@H](CC(C)C)NC(=O)[C@H](CCCNC(=N)N)NC(=O)[C@H](CCC(N)=O)NC(=O)[C@@H](NC(=O)[C@H](C)NC(=O)[C@@H]1CSSC[C@H](NC(=O)[C@@H](N)CCCCNC(=O)COCCOCCNC(=O)CC[C@H](NC(=O)CCCCCCCCCCCCCCCCCCC(=O)O)C(=O)O)C(=O)N[C@@H](CC(N)=O)C(=O)N[C@@H]([C@@H](C)O)C(=O)N[C@@H](C)C(=O)N[C@@H]([C@@H](C)O)C(=O)N1)[C@@H](C)O)C(=O)N1CCC[C@H]1C(=O)N[C@@H](CO)C(=O)N[C@@H](CO)C(=O)N[C@H](C(=O)N[C@@H](CC(N)=O)C(=O)N[C@H](C(=O)NCC(=O)N[C@@H](CO)C(=O)N[C@@H](CCC(=O)O)C(=O)N[C@H](C(=O)N[C@@H](Cc1ccc(O)cc1)C(N)=O)[C@@H](C)O)C(C)C)[C@@H](C)O
notes: also called 17R, 21P, 27P, 35E
B2: N^ε1-[2-[2-[2-[[(4S)-4-carboxy-4-(19-carboxynonadecanoylamino)butanoyl]amino]ethoxy]ethoxy]acetyl]-[Arg17,Pro21,Pro27,Pro31,His35]-h-amylin (peptide)
peptide: K([AEEA-γGlu-C20 diacid])CNTATCATQRLANFLRHSSPNFGAIPSSTPVGSHTY-NH2
modifications: disulfide 2-7; N-terminus assumed
SMILES: CC[C@H](C)[C@H](NC(=O)[C@H](C)NC(=O)CNC(=O)[C@H](Cc1ccccc1)NC(=O)[C@H](CC(N)=O)NC(=O)[C@@H]1CCCN1C(=O)[C@H](CO)NC(=O)[C@H](CO)NC(=O)[C@H](Cc1c[nH]cn1)NC(=O)[C@H](CCCNC(=N)N)NC(=O)[C@H](CC(C)C)NC(=O)[C@H](Cc1ccccc1)NC(=O)[C@H](CC(N)=O)NC(=O)[C@H](C)NC(=O)[C@H](CC(C)C)NC(=O)[C@H](CCCNC(=N)N)NC(=O)[C@H](CCC(N)=O)NC(=O)[C@@H](NC(=O)[C@H](C)NC(=O)[C@@H]1CSSC[C@H](NC(=O)[C@@H](N)CCCCNC(=O)COCCOCCNC(=O)CC[C@H](NC(=O)CCCCCCCCCCCCCCCCCCC(=O)O)C(=O)O)C(=O)N[C@@H](CC(N)=O)C(=O)N[C@@H]([C@@H](C)O)C(=O)N[C@@H](C)C(=O)N[C@@H]([C@@H](C)O)C(=O)N1)[C@@H](C)O)C(=O)N1CCC[C@H]1C(=O)N[C@@H](CO)C(=O)N[C@@H](CO)C(=O)N[C@H](C(=O)N1CCC[C@H]1C(=O)N[C@H](C(=O)NCC(=O)N[C@@H](CO)C(=O)N[C@@H](Cc1c[nH]cn1)C(=O)N[C@H](C(=O)N[C@@H](Cc1ccc(O)cc1)C(N)=O)[C@@H](C)O)C(C)C)[C@@H](C)O
notes: also called 17R, 21P, 27P, 31P, 35H
B3: N^ε1-[2-[2-[2-[[(4S)-4-carboxy-4-(19-carboxynonadecanoylamino)butanoyl]amino]ethoxy]ethoxy]acetyl]-[Arg17,Pro21,Pro27,Pro29,Pro31]-h-amylin (peptide)
peptide: K([AEEA-γGlu-C20 diacid])CNTATCATQRLANFLRHSSPNFGAIPSPTPVGSNTY-NH2
modifications: disulfide 2-7; N-terminus assumed
SMILES: CC[C@H](C)[C@H](NC(=O)[C@H](C)NC(=O)CNC(=O)[C@H](Cc1ccccc1)NC(=O)[C@H](CC(N)=O)NC(=O)[C@@H]1CCCN1C(=O)[C@H](CO)NC(=O)[C@H](CO)NC(=O)[C@H](Cc1c[nH]cn1)NC(=O)[C@H](CCCNC(=N)N)NC(=O)[C@H](CC(C)C)NC(=O)[C@H](Cc1ccccc1)NC(=O)[C@H](CC(N)=O)NC(=O)[C@H](C)NC(=O)[C@H](CC(C)C)NC(=O)[C@H](CCCNC(=N)N)NC(=O)[C@H](CCC(N)=O)NC(=O)[C@@H](NC(=O)[C@H](C)NC(=O)[C@@H]1CSSC[C@H](NC(=O)[C@@H](N)CCCCNC(=O)COCCOCCNC(=O)CC[C@H](NC(=O)CCCCCCCCCCCCCCCCCCC(=O)O)C(=O)O)C(=O)N[C@@H](CC(N)=O)C(=O)N[C@@H]([C@@H](C)O)C(=O)N[C@@H](C)C(=O)N[C@@H]([C@@H](C)O)C(=O)N1)[C@@H](C)O)C(=O)N1CCC[C@H]1C(=O)N[C@@H](CO)C(=O)N1CCC[C@H]1C(=O)N[C@H](C(=O)N1CCC[C@H]1C(=O)N[C@H](C(=O)NCC(=O)N[C@@H](CO)C(=O)N[C@@H](CC(N)=O)C(=O)N[C@H](C(=O)N[C@@H](Cc1ccc(O)cc1)C(N)=O)[C@@H](C)O)C(C)C)[C@@H](C)O
notes: also called 17R, 21P, 27P, 29P, 31P
B4: N^ε1-[2-[2-[2-[[(4S)-4-carboxy-4-(19-carboxynonadecanoylamino)butanoyl]amino]ethoxy]ethoxy]acetyl]-[Arg17,Pro21,Pro27,His34]-h-amylin (peptide)
peptide: K([AEEA-γGlu-C20 diacid])CNTATCATQRLANFLRHSSPNFGAIPSSTNVGHNTY-NH2
modifications: disulfide 2-7; N-terminus assumed
SMILES: CC[C@H](C)[C@H](NC(=O)[C@H](C)NC(=O)CNC(=O)[C@H](Cc1ccccc1)NC(=O)[C@H](CC(N)=O)NC(=O)[C@@H]1CCCN1C(=O)[C@H](CO)NC(=O)[C@H](CO)NC(=O)[C@H](Cc1c[nH]cn1)NC(=O)[C@H](CCCNC(=N)N)NC(=O)[C@H](CC(C)C)NC(=O)[C@H](Cc1ccccc1)NC(=O)[C@H](CC(N)=O)NC(=O)[C@H](C)NC(=O)[C@H](CC(C)C)NC(=O)[C@H](CCCNC(=N)N)NC(=O)[C@H](CCC(N)=O)NC(=O)[C@@H](NC(=O)[C@H](C)NC(=O)[C@@H]1CSSC[C@H](NC(=O)[C@@H](N)CCCCNC(=O)COCCOCCNC(=O)CC[C@H](NC(=O)CCCCCCCCCCCCCCCCCCC(=O)O)C(=O)O)C(=O)N[C@@H](CC(N)=O)C(=O)N[C@@H]([C@@H](C)O)C(=O)N[C@@H](C)C(=O)N[C@@H]([C@@H](C)O)C(=O)N1)[C@@H](C)O)C(=O)N1CCC[C@H]1C(=O)N[C@@H](CO)C(=O)N[C@@H](CO)C(=O)N[C@H](C(=O)N[C@@H](CC(N)=O)C(=O)N[C@H](C(=O)NCC(=O)N[C@@H](Cc1c[nH]cn1)C(=O)N[C@@H](CC(N)=O)C(=O)N[C@H](C(=O)N[C@@H](Cc1ccc(O)cc1)C(N)=O)[C@@H](C)O)C(C)C)[C@@H](C)O
notes: also called 17R, 21P, 27P, 34H
B5: N^ε1-[2-[2-[2-[[(4S)-4-carboxy-4-(19-carboxynonadecanoylamino)butanoyl]amino]ethoxy]ethoxy]acetyl]-[Arg17,Pro21,Pro27,Pro28,Pro34]-h-amylin (peptide)
peptide: K([AEEA-γGlu-C20 diacid])CNTATCATQRLANFLRHSSPNFGAIPPSTNVGPNTY-NH2
modifications: disulfide 2-7; N-terminus assumed
SMILES: CC[C@H](C)[C@H](NC(=O)[C@H](C)NC(=O)CNC(=O)[C@H](Cc1ccccc1)NC(=O)[C@H](CC(N)=O)NC(=O)[C@@H]1CCCN1C(=O)[C@H](CO)NC(=O)[C@H](CO)NC(=O)[C@H](Cc1c[nH]cn1)NC(=O)[C@H](CCCNC(=N)N)NC(=O)[C@H](CC(C)C)NC(=O)[C@H](Cc1ccccc1)NC(=O)[C@H](CC(N)=O)NC(=O)[C@H](C)NC(=O)[C@H](CC(C)C)NC(=O)[C@H](CCCNC(=N)N)NC(=O)[C@H](CCC(N)=O)NC(=O)[C@@H](NC(=O)[C@H](C)NC(=O)[C@@H]1CSSC[C@H](NC(=O)[C@@H](N)CCCCNC(=O)COCCOCCNC(=O)CC[C@H](NC(=O)CCCCCCCCCCCCCCCCCCC(=O)O)C(=O)O)C(=O)N[C@@H](CC(N)=O)C(=O)N[C@@H]([C@@H](C)O)C(=O)N[C@@H](C)C(=O)N[C@@H]([C@@H](C)O)C(=O)N1)[C@@H](C)O)C(=O)N1CCC[C@H]1C(=O)N1CCC[C@H]1C(=O)N[C@@H](CO)C(=O)N[C@H](C(=O)N[C@@H](CC(N)=O)C(=O)N[C@H](C(=O)NCC(=O)N1CCC[C@H]1C(=O)N[C@@H](CC(N)=O)C(=O)N[C@H](C(=O)N[C@@H](Cc1ccc(O)cc1)C(N)=O)[C@@H](C)O)C(C)C)[C@@H](C)O
notes: also called 17R, 21P, 27P, 28P, 34P
B6: N^ε1-[2-[2-[2-[[(4S)-4-carboxy-4-(19-carboxynonadecanoylamino)butanoyl]amino]ethoxy]ethoxy]acetyl]-[Arg17,Pro21,Pro27,Pro29,Pro34]-h-amylin (peptide)
peptide: K([AEEA-γGlu-C20 diacid])CNTATCATQRLANFLRHSSPNFGAIPSPTNVGPNTY-NH2
modifications: disulfide 2-7; N-terminus assumed
SMILES: CC[C@H](C)[C@H](NC(=O)[C@H](C)NC(=O)CNC(=O)[C@H](Cc1ccccc1)NC(=O)[C@H](CC(N)=O)NC(=O)[C@@H]1CCCN1C(=O)[C@H](CO)NC(=O)[C@H](CO)NC(=O)[C@H](Cc1c[nH]cn1)NC(=O)[C@H](CCCNC(=N)N)NC(=O)[C@H](CC(C)C)NC(=O)[C@H](Cc1ccccc1)NC(=O)[C@H](CC(N)=O)NC(=O)[C@H](C)NC(=O)[C@H](CC(C)C)NC(=O)[C@H](CCCNC(=N)N)NC(=O)[C@H](CCC(N)=O)NC(=O)[C@@H](NC(=O)[C@H](C)NC(=O)[C@@H]1CSSC[C@H](NC(=O)[C@@H](N)CCCCNC(=O)COCCOCCNC(=O)CC[C@H](NC(=O)CCCCCCCCCCCCCCCCCCC(=O)O)C(=O)O)C(=O)N[C@@H](CC(N)=O)C(=O)N[C@@H]([C@@H](C)O)C(=O)N[C@@H](C)C(=O)N[C@@H]([C@@H](C)O)C(=O)N1)[C@@H](C)O)C(=O)N1CCC[C@H]1C(=O)N[C@@H](CO)C(=O)N1CCC[C@H]1C(=O)N[C@H](C(=O)N[C@@H](CC(N)=O)C(=O)N[C@H](C(=O)NCC(=O)N1CCC[C@H]1C(=O)N[C@@H](CC(N)=O)C(=O)N[C@H](C(=O)N[C@@H](Cc1ccc(O)cc1)C(N)=O)[C@@H](C)O)C(C)C)[C@@H](C)O
notes: also called 17R, 21P, 27P, 29P, 34P

Numbered stars: 1 amine (or outer) side, 2 acyl side, 3 side chain; on linkers, the order of the positions; unused ones are H or OH. Bridge positions count the residues as written; N and C are the ends. Side chains are listed from the residue outwards. Ends that are not written are not given here. * marks the point of attachment. C20 diacid = O=C(O)CCCCCCCCCCCCCCCCCCC(=O)*; γGlu = O=C(O)[C@H](CCC(=O)[*:2])N[*:1]; AEEA = NCCOCCOCC(=O)O

Usually IC50 stands for the concentration that inhibits the measured activity by half.

The target in the experiment is T1, human amylin receptor. Briefly: SPA competition binding, displacement of 125I-rat amylin from membranes with human amylin 3(a) receptor (Assay V). Summed up: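 SPA beads + BHK amylin 3(a)/CRE-luc membranes, 35 ng/μL final; buffer 50 mM Hepes pH 7.4, 1 mM CaCl2, 5 mM MgCl₂, 0.1% OA, 0.02% Tween20. 120 min, 25° C, shaken; scintillation count. IC₅₀ by one-site binding competition fit, taken as receptor affinity.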
In general terms: In a radioligand displacement assay an active substance lowers the binding of a labelled ligand.
B1 showed an IC50 of 0.532 nM. The molecule B2 came in with an IC50 of 0.115 nM. Then B3, with 0.03 nM; and B4, with 0.215 nM. For the molecule B5, the IC50 turned out to be 0.042 nM.

B6 registered an IC50 of 0.049 nM. The IC50 values of the last two molecules are within 1.5-fold of each other. For K([AEEA-γGlu-C20 diacid])CNTATCATQRLANFLRHSSPNFGAIPPSTPVGSNTY-NH2 (disulfide 2-7, also called 17R, 21P, 27P, 28P, 31P) the value was 0.052 nM.

The values above are taken from patent US20140087995A1 (published 2014).
